Reference: patent publication US5831003A, “Peptides which bind to prothrombin and thrombin” (Bayer Corporation, priority 1996, dated 1998)
Where “and” joins values, the source holds several entries; their conditions need not be identical. Equal values may be shown once. Ends that are not written are not given here.

What was measured:
prothrombin = target: T1, prothrombin (Homo sapiens, UniProt P00734); experiment: Purification of prothrombin from PTC eluate on QLWGSH-A-Totda-Toyopearl; assay type: binding; conditions: SDS-PAGE and western blot; released with 1 M NaCl
T1 construct: from tissue
Method: Human pooled plasma was processed to PTC eluate by standard manufacturing procedures as indicated in Example 1. Approximately 1.0 ml of PTC eluate was injected onto the peptide resin QLWGSH-A-Totda-Toyopearl (FIG. 2 B). The column was washed with equilibration buffer containing 1.0 M NaCl and then containing 3.0 M NaCl. Acid treatment (2.5% acetic acid) was used to release protein from peptide resin.

thrombin = target: T2, thrombin (Homo sapiens, UniProt P00734); experiment: Purification of α-thrombin from activated PTC eluate on QLWGSH-A-Totda-Toyopearl; assay type: binding; conditions: SDS-PAGE and western blot
T2 construct: from tissue
Method: Human pooled plasma was processed to PTC eluate by standard manufacturing techniques. In brief, DEAE-Sephadex resin was added to post cryoprecipitate eluant and loosely bound protein was washed away with a low salt buffer. Higher concentrations of NaCl eluted the fraction called PTC eluate which contains prothrombin and the vitamin K-dependent coagulation protease zymogens (factors VII, IX, X, protein C and protein S). A sample of PTC eluate was activated in the presence of 25% (w/w) sodium citrate for 4 days at room temperature. Approximately 1.0 ml of activated PTC eluate was injected onto the peptide resin QLWGSH-A-Totda-Toyopearl (FIG. 2 A). The column was washed with equilibration buffer (10 mM HEPES, pH 6.8, 1.0 mM EGTA and 0.1% v/v Tween-20) containing 1.0 M NaCl and then washed further with equilibration buffer containing 3.0 M NaCl. Acid treatment (2.5% acetic acid) was used to release protein from the peptide resin.

α-thrombin = target: T3, α-thrombin (Homo sapiens, UniProt P00734); experiment: Confirmatory binding assay in column chromatographic format, peptides synthesized on A-Totda-Toyopearl; conditions: for Absorbance, 280 nm 2% Acetic Acid: integration of A280
T3 construct: α-Thrombin is the active form of the plasma serine protease zymogen, prothrombin; purchased Enzyme Research Labs (South Bend, Ind.)
Method: Confirmatory binding assays were performed in a column chromatographic format on a microbore HPLC using individual peptide sequences synthesized directly onto the Toyopearl 650 M Chelate resin which had been modified with Totda followed by an alanine residue (A-Totda-Toyopearl), at a final substitution density of 0.2 mmol/g resin. […] The endpoint was a dose-dependent increase in the acid eluate in the thrombin contactings, and quantification was by integration of the absorbance at 280 nm.

binding of prothrombin from unactivated PTC eluate (in words) (prothrombin): prothrombin bound the peptide
binding and enrichment of thrombin from activated PTC eluate (in words) (thrombin): bound and enriched thrombin
Absorbance, 280 nm 2% Acetic Acid (α-thrombin; 50 μg α-thrombin applied): 1.54 and 1.39
Absorbance, 280 nm 2% Acetic Acid (α-thrombin; 100 μg α-thrombin applied): 3.23 and 2.09
Absorbance, 280 nm 2% Acetic Acid (α-thrombin; 200 μg α-thrombin applied): 6.92 and 3.71
dose dependence of thrombin in the acid eluant (in words) (α-thrombin; 50, 100 and 200 μg α-thrombin): dose dependent increase
binding of thrombin to peptide resin (in words) (α-thrombin; summary of Table 2): bound thrombin
Substance: QLWGSH (not fully specified (C-terminus))
